We go through 28 variants from the supplement of paper PMC11811203.

To fix the notation:
B1: THAP1; numbered along this chain (parent)
chain: MVQSCSAYGCKNRYDKDKPVSFHKFPLTRPSLCKEWEAAVRRKNFKPTKYSSICSEHFTPDCFKRECNNKLLKENAVPTIFLCTEPHDKKEDLLEPQEQLPPPPLPPPVSQVDAAIGLLMPPLQTPVNLSVFCDHNYTVEDTMHQRKRIHQLEQQVEKLRKKLKTAQQRCRRQERQLEKLKEVVHFQKEKDDVSERGYVILPNDYFEIVEVPA

The variants in this data set derive from B1. The data set can be described thus: THAP1 transcriptional activity (GFP+/GFP- enrichment relative to wild-type constructs) (ratio to WT); higher = more THAP1 activity (PSMB5 reporter activation). To be noted: with PSMB5 promoter-GFP reporter. As for the experimental part: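 Deep mutational scan of human THAP1. Site-saturation single amino acid variant library (residues 2-213) was expressed by lentivirus at MOI ~0.3 in THAP1-knockout HEK-293T cells carrying an endogenous PSMB5 promoter-GFP knock-in reporter. Five days post-transduction, BFP+ cells were FACS-sorted into GFP dim and GFP bright populations and variants were counted by Illumina sequencing. Activity is the GFP-bright/GFP-dim read fold change, mean of 2 replicates, divided by the mean fold change of wild-type (synonymous) constructs in the same screen pool; WT = 1.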
For MVQSCSAYGCKNRYDKDKPVSFHKFPLTRPSLCKEWEAAVRRKNFKPTKYSSICSEHFTPDCFKRECNNKLLKENAVPTIFLCTEPHDKKEDLLEPQEQLPPPPLPPPVSQVDAAIGLLMPPLQTPVNLSVFCDHNYTVEDTMHQRKRIHQLEQQVEKLRKKLKTAQQRCRRQERQLEKLKEVVHFQKEKDDVSERGYVILPNWYFEIVEVPA [D204W], the THAP1 transcriptional activity is 0.525. The result for MVQSCSAYGCKNRYDKDKPVSFHKFPLTRPSLCKEWEAAVRRKNFKPTKYSSICSEHFTPDCFKRECNNKLLKENAVPTIFLCTEPHDKGEDLLEPQEQLPPPPLPPPVSQVDAAIGLLMPPLQTPVNLSVFCDHNYTVEDTMHQRKRIHQLEQQVEKLRKKLKTAQQRCRRQERQLEKLKEVVHFQKEKDDVSERGYVILPNDYFEIVEVPA [K90G] reads 1.6; that for MVQSCSAYGCKNRYTKDKPVSFHKFPLTRPSLCKEWEAAVRRKNFKPTKYSSICSEHFTPDCFKRECNNKLLKENAVPTIFLCTEPHDKKEDLLEPQEQLPPPPLPPPVSQVDAAIGLLMPPLQTPVNLSVFCDHNYTVEDTMHQRKRIHQLEQQVEKLRKKLKTAQQRCRRQERQLEKLKEVVHFQKEKDDVSERGYVILPNDYFEIVEVPA [D15T], 0.679. The result for MVQSCSAYGCKNRYDKDKPVSFHKFPLTRPSLCKEWEAAVRRKNFKPTKYSSICSEHFTPDCFKRECNNKLLKENAQPTIFLCTEPHDKKEDLLEPQEQLPPPPLPPPVSQVDAAIGLLMPPLQTPVNLSVFCDHNYTVEDTMHQRKRIHQLEQQVEKLRKKLKTAQQRCRRQERQLEKLKEVVHFQKEKDDVSERGYVILPNDYFEIVEVPA [V77Q] reads 0.318; that for MVQSCSAYGCKNRYDKDKPVSFHKFPLTRPSLCKEWEAAVRRKNFKPTKYSSICSEHFTPDCFKRECNNKLLKENAVPTIFLCTEPHDKKEDLLEPQEQLPPPPLPPPVSQVDAAIGLLMPPLQTPVNLSVFCDHNYTVEDTMHQRKRIHQLEQQVEKLGKKLKTAQQRCRRQERQLEKLKEVVHFQKEKDDVSERGYVILPNDYFEIVEVPA [R160G], 0.224; that for MVQSCSAYGCKNRYDKDKPVSFHKFPLTRPSLCKEWEAAVRRKNFKPTKYSSICSEHFTCDCFKRECNNKLLKENAVPTIFLCTEPHDKKEDLLEPQEQLPPPPLPPPVSQVDAAIGLLMPPLQTPVNLSVFCDHNYTVEDTMHQRKRIHQLEQQVEKLRKKLKTAQQRCRRQERQLEKLKEVVHFQKEKDDVSERGYVILPNDYFEIVEVPA [P60C], 0.174. The result for MVQSCSAYGCKNRYDKDKPVSFHKFPLTRPSLCKEWEAAVRKKNFKPTKYSSICSEHFTPDCFKRECNNKLLKENAVPTIFLCTEPHDKKEDLLEPQEQLPPPPLPPPVSQVDAAIGLLMPPLQTPVNLSVFCDHNYTVEDTMHQRKRIHQLEQQVEKLRKKLKTAQQRCRRQERQLEKLKEVVHFQKEKDDVSERGYVILPNDYFEIVEVPA [R42K] reads 0.189. For the variant MVQSCSAYGCKNRYDKDKPVSFHKFPLTRPSLCKEWEAAVRRKNFKPTKYSSICSEHFTPDCFKRECNNKLLKENAVNTIFLCTEPHDKKEDLLEPQEQLPPPPLPPPVSQVDAAIGLLMPPLQTPVNLSVFCDHNYTVEDTMHQRKRIHQLEQQVEKLRKKLKTAQQRCRRQERQLEKLKEVVHFQKEKDDVSERGYVILPNDYFEIVEVPA [P78N], the THAP1 transcriptional activity was 0.269. The result for MVQSCSAYGCKNRYDKDKPVSFHKFPLTRPSLCKEWEAAVRRKNFKPTKYSSICSEHFTPDCFKRECNNKLLKENAVPTIFLCTEPHDKKEDLLEPQEQLPPPPLPPPVSQVDAAIGLLMPPLQTPVNLSVFCDHNYTVEDTMHQRKRIHQLEQQVEKLRKKLKTAQQRCRRQERQLEKLKEVVKFQKEKDDVSERGYVILPNDYFEIVEVPA [H185K] reads 1.87; that for MVQSCSAYGCKNRYDKDKPVSFHKFPLTRPSLCKEWEAAVRRKNFKPTKRSSICSEHFTPDCFKRECNNKLLKENAVPTIFLCTEPHDKKEDLLEPQEQLPPPPLPPPVSQVDAAIGLLMPPLQTPVNLSVFCDHNYTVEDTMHQRKRIHQLEQQVEKLRKKLKTAQQRCRRQERQLEKLKEVVHFQKEKDDVSERGYVILPNDYFEIVEVPA [Y50R], 0.09; that for MVQSCSAYGCKNRYDKDKPVSFHKFPLTRPSLCKEWEAAVRRKNFKPTKYSSICSEHFTPDCFKRECNNKLLKENAVPTIFLCTEPHDKKEDLLEPQEQLPPPPLPPPVSQVDAAIDLLMPPLQTPVNLSVFCDHNYTVEDTMHQRKRIHQLEQQVEKLRKKLKTAQQRCRRQERQLEKLKEVVHFQKEKDDVSERGYVILPNDYFEIVEVPA [G117D], 0.481. The result for MVQSCSAYGCKNRYDKDKPVSFHKFPLTRPSLAKEWEAAVRRKNFKPTKYSSICSEHFTPDCFKRECNNKLLKENAVPTIFLCTEPHDKKEDLLEPQEQLPPPPLPPPVSQVDAAIGLLMPPLQTPVNLSVFCDHNYTVEDTMHQRKRIHQLEQQVEKLRKKLKTAQQRCRRQERQLEKLKEVVHFQKEKDDVSERGYVILPNDYFEIVEVPA [C33A] reads 0.499; that for MVQSCSAYGCKNRYDKDKPVSFHKFPLTRPSLHKEWEAAVRRKNFKPTKYSSICSEHFTPDCFKRECNNKLLKENAVPTIFLCTEPHDKKEDLLEPQEQLPPPPLPPPVSQVDAAIGLLMPPLQTPVNLSVFCDHNYTVEDTMHQRKRIHQLEQQVEKLRKKLKTAQQRCRRQERQLEKLKEVVHFQKEKDDVSERGYVILPNDYFEIVEVPA [C33H], 0.173; that for MVQSCSAYGCKNRYDKDKPVSFHKFPLTRPSLCKEWEAAVRRKNFKPTKYSSICSEHFTPDCFKRECNNKLLKENAVPTIFLCTEPHDKKEDLLPPQEQLPPPPLPPPVSQVDAAIGLLMPPLQTPVNLSVFCDHNYTVEDTMHQRKRIHQLEQQVEKLRKKLKTAQQRCRRQERQLEKLKEVVHFQKEKDDVSERGYVILPNDYFEIVEVPA [E95P], 1.22.

Consider MVQSCSAYGCKNRYDKDKPVSFHKFPLTRPSLCKEWEAAVRRKNFKPTKYSSICSEHFTPDCFKRECNNKLLKENAVPTIFLCTEPHDKKEDLLGPQEQLPPPPLPPPVSQVDAAIGLLMPPLQTPVNLSVFCDHNYTVEDTMHQRKRIHQLEQQVEKLRKKLKTAQQRCRRQERQLEKLKEVVHFQKEKDDVSERGYVILPNDYFEIVEVPA [E95G], for which the THAP1 transcriptional activity amounted to 1.26. The result for MVQSCSAYGCKNRYDKDKPVSFHKFPLTRPSLCKEWEAAVRRKNFKPTKYSSICSEHFTPDCFKRECNNKLLKENAVPTIFLCTEPHDKKEDLLEPQEWLPPPPLPPPVSQVDAAIGLLMPPLQTPVNLSVFCDHNYTVEDTMHQRKRIHQLEQQVEKLRKKLKTAQQRCRRQERQLEKLKEVVHFQKEKDDVSERGYVILPNDYFEIVEVPA [Q99W] reads 0.514. As for MVQSCSAYGCKNRYDDDKPVSFHKFPLTRPSLCKEWEAAVRRKNFKPTKYSSICSEHFTPDCFKRECNNKLLKENAVPTIFLCTEPHDKKEDLLEPQEQLPPPPLPPPVSQVDAAIGLLMPPLQTPVNLSVFCDHNYTVEDTMHQRKRIHQLEQQVEKLRKKLKTAQQRCRRQERQLEKLKEVVHFQKEKDDVSERGYVILPNDYFEIVEVPA [K16D], the THAP1 transcriptional activity worked out at 0.0673. The result for MVQSCSAYGCKNRYDKDKPVSFHKFPLTRPSLCKEWEAAVRRKNFKPTKYSSICSEHFTPDCFKRECNNKLLKENAVPTIFLCTEPHDKKEDLLEWQEQLPPPPLPPPVSQVDAAIGLLMPPLQTPVNLSVFCDHNYTVEDTMHQRKRIHQLEQQVEKLRKKLKTAQQRCRRQERQLEKLKEVVHFQKEKDDVSERGYVILPNDYFEIVEVPA [P96W] reads 0.452. The result for MVQSCSAYGCKNRYDKDKPVSFHKFPLTRPSLCKEWEAAVWRKNFKPTKYSSICSEHFTPDCFKRECNNKLLKENAVPTIFLCTEPHDKKEDLLEPQEQLPPPPLPPPVSQVDAAIGLLMPPLQTPVNLSVFCDHNYTVEDTMHQRKRIHQLEQQVEKLRKKLKTAQQRCRRQERQLEKLKEVVHFQKEKDDVSERGYVILPNDYFEIVEVPA [R41W] reads 0.182; that for MVQSCSAYGCKNRYDKDKPVSFHKFPLTRPSLCKEWEAAVRRKNFKPTKYSSICSEHFTPACFKRECNNKLLKENAVPTIFLCTEPHDKKEDLLEPQEQLPPPPLPPPVSQVDAAIGLLMPPLQTPVNLSVFCDHNYTVEDTMHQRKRIHQLEQQVEKLRKKLKTAQQRCRRQERQLEKLKEVVHFQKEKDDVSERGYVILPNDYFEIVEVPA [D61A], 0.309. The result for MVQSCSAYGCKNRYDKDKPVSFHKFPLTRPSLCKEWEAAVRRKNFKPTKYSSICSEHFTPDCFKRECNNKLLKENAVPTIFLCTEPHDKKEDLLEPQEQLPPPPLPYPVSQVDAAIGLLMPPLQTPVNLSVFCDHNYTVEDTMHQRKRIHQLEQQVEKLRKKLKTAQQRCRRQERQLEKLKEVVHFQKEKDDVSERGYVILPNDYFEIVEVPA [P107Y] reads 1.42. For the variant MVQSCSAYGCKNRYDKDKPVSFHKFPLTRPSLCKEWEDAVRRKNFKPTKYSSICSEHFTPDCFKRECNNKLLKENAVPTIFLCTEPHDKKEDLLEPQEQLPPPPLPPPVSQVDAAIGLLMPPLQTPVNLSVFCDHNYTVEDTMHQRKRIHQLEQQVEKLRKKLKTAQQRCRRQERQLEKLKEVVHFQKEKDDVSERGYVILPNDYFEIVEVPA [A38D], the THAP1 transcriptional activity was 1.

With MVQSCSAYGCKNRYDKDKPVSFHKFPLTRPSLCKEWEAAVRRKNFKPTKYSSICSEHFTPDCFKRECNNKLLKENAVPTIFLCTEPHDKKEDLLEPQEQLPPPPLPPPVSQVDAAIGLLMPPLQTPVNLSVFCDHNYTVEDTMHQRKRIHQLEQQVEKLRKKLKTAQQRCRRQERQLEKLGEVVHFQKEKDDVSERGYVILPNDYFEIVEVPA [K181G], the THAP1 transcriptional activity was found to be 0.53. The result for MVQSCSAYGCKNRYDKDKPVSFHKFPLTRPSLCKEWEAAVRRKNFKPTKYSSICSEHFTPDCFKRECNNKLLKENAVPTIFLCTEPHDKKEDLLEPQEQLPPPPLPPPVSQVDAAIGLLMPPLQTPVNLSVFCDHNYTVEDTMHERKRIHQLEQQVEKLRKKLKTAQQRCRRQERQLEKLKEVVHFQKEKDDVSERGYVILPNDYFEIVEVPA [Q145E] reads 0.577; that for MYQSCSAYGCKNRYDKDKPVSFHKFPLTRPSLCKEWEAAVRRKNFKPTKYSSICSEHFTPDCFKRECNNKLLKENAVPTIFLCTEPHDKKEDLLEPQEQLPPPPLPPPVSQVDAAIGLLMPPLQTPVNLSVFCDHNYTVEDTMHQRKRIHQLEQQVEKLRKKLKTAQQRCRRQERQLEKLKEVVHFQKEKDDVSERGYVILPNDYFEIVEVPA [V2Y], 0.16. Turning to MVQSCSAYGCKNRYDKDKPVSFHKFPLTRPSLCKEWEAAVRRKNFKPTKYFSICSEHFTPDCFKRECNNKLLKENAVPTIFLCTEPHDKKEDLLEPQEQLPPPPLPPPVSQVDAAIGLLMPPLQTPVNLSVFCDHNYTVEDTMHQRKRIHQLEQQVEKLRKKLKTAQQRCRRQERQLEKLKEVVHFQKEKDDVSERGYVILPNDYFEIVEVPA [S51F], the THAP1 transcriptional activity is 0.102. As to MVQSCSAYGCKNRYDKDKPVSFHKFPLTRPSLCKEWEAAVRRKNFKPTKYSSICSEHFTPDCFKRECNNKLLKENAVPTIFLCTEPHDKKEDLLEPQEQLPPPPLPPPVSQVDAAIGLLMPPLQTPVNLSVFCDHNYTVEDTMHQRKRIHQLEQQVEKLRKKLKTAQQRCRRQERQLEKLKEVVHFQKEKDDVSSRGYVILPNDYFEIVEVPA [E195S], the THAP1 transcriptional activity is 1.16.

Consider MVQSCSAYGCKNRYDKDKSVSFHKFPLTRPSLCKEWEAAVRRKNFKPTKYSSICSEHFTPDCFKRECNNKLLKENAVPTIFLCTEPHDKKEDLLEPQEQLPPPPLPPPVSQVDAAIGLLMPPLQTPVNLSVFCDHNYTVEDTMHQRKRIHQLEQQVEKLRKKLKTAQQRCRRQERQLEKLKEVVHFQKEKDDVSERGYVILPNDYFEIVEVPA [P19S], for which the THAP1 transcriptional activity was found to be 0.78.
